According to publication PMC10485164, “Sequence-specific targeting of Caenorhabditis elegans C-Ala to the D-loop of tRNAAla”:
Where a chain is given by its changes, count along the chain named.

Legend:
[1] = tested on: CeAlaRSm(ΔC) (Caenorhabditis elegans); experiment: EMSA; conditions: 5 mM Mg2+; EMSA: 20 mM Hepes pH 7.5, 20 mM KCl, 5 mM MgCl2, 2 mM DTT, 10 min on ice, 0.1 uM ligand; 5% native PAGE in 0.5x TBE at 4 C; protein 0.125-32 uM
[2] = tested on: CeAlaRSm (mitochondrial AlaRS) (Caenorhabditis elegans); experiment: EMSA; conditions: 5 mM Mg2+; EMSA: 20 mM Hepes pH 7.5, 20 mM KCl, 5 mM MgCl2, 2 mM DTT, 10 min on ice, 0.1 uM ligand; 5% native PAGE in 0.5x TBE at 4 C; protein 0.125-32 uM
[3] = tested on: Ce-C-Alam (C-Ala of mitochondrial AlaRS) (Caenorhabditis elegans); experiment: EMSA; conditions: 5 mM Mg2+; EMSA: 20 mM Hepes pH 7.5, 20 mM KCl, 5 mM MgCl2, 2 mM DTT, 10 min on ice, 0.1 uM ligand; 5% native PAGE in 0.5x TBE at 4 C; protein 0.125-32 uM
[4] = target: T1, Ce-C-Alac (C-Ala of cytoplasmic AlaRS) (Caenorhabditis elegans, UniProt O01541 757-968); experiment: EMSA; 5 mM Mg2+; EMSA: 20 mM Hepes pH 7.5, 20 mM KCl, 5 mM MgCl2, 2 mM DTT, 10 min on ice, 0.1 uM ligand; 5% native PAGE in 0.5x TBE at 4 C; protein 0.125-32 uM; conditions: protein: recombinant, tags: His6 (C-terminal, pET21b), label: 5'-32P
T1 sequence: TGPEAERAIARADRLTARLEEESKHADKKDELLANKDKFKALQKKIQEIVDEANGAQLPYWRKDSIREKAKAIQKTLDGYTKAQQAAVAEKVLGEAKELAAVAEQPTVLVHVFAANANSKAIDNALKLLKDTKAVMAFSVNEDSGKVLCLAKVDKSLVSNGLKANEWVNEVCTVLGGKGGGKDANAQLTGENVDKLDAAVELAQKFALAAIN

[5] = target: T2, Ce-C-Alac globular subdomain (GS) (Caenorhabditis elegans, UniProt O01541 859-968); experiment: as above; conditions: protein: recombinant, tags: His6 (C-terminal, pET21b), label: 5'-32P
T2 sequence: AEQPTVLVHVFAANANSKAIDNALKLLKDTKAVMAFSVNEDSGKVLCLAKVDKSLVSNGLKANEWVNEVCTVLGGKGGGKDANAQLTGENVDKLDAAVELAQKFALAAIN

[6] = target: T3, Ce-C-Alac helical subdomain (HS) (Caenorhabditis elegans, UniProt O01541 757-858); experiment: as above; conditions: protein: recombinant, tags: His6 (C-terminal, pET21b), label: 5'-32P
T3 sequence: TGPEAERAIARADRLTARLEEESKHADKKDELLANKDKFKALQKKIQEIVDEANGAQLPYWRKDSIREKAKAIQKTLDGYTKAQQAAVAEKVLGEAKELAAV

[7] = target: T1, Ce-C-Alac (C-Ala of cytoplasmic AlaRS); experiment: as above; conditions: protein: recombinant; tags: His6 (C-terminal, pET21b); label: 5'-32P; two hairpins

Q: What does the source list for “GGGAUUUUAGUUUAAUAAAAAUAUAUGUUUUGCAUACAUAAGAUAAUAAUUCUACCA [CetRNAmAla]”?
A: Kd [1]: > 32000 nM; Kd [2]: 200 nM; Kd [3]: 200 nM

Q: What does the source list for “GGGAUUUUAGUUUAGUGGUAAAAUAUAUGUUUUGCAUACAUAAGAUAAUAAUUCUACCA [DLnAla mut (CetRNAmAla with D-loop of CetRNAnAla)]”?
A: Kd [1]: > 32000 nM; Kd [2]: 1000 nM; Kd [3]: 4000 nM

Q: “GGGGGUAUAGCUCAGUGGUAGAGCGCUCCCUUAGCAUGGGAGAGGGCUGGGGUUCAAUUCCCCAUACCUCCACCA [CetRNAnAla]” was tested. Which binding signal (fold lower affinity than CetRNAmAla) [3] did it give?
A: Its binding signal (fold lower affinity than CetRNAmAla) is 7.5.

B1: CetRNAnAla (structured_RNA)
RNA: GGGGGUAUAGCUCAGUGGUAGAGCGCUCCCUUAGCAUGGGAGAGGGCUGGGGUUCAAUUCCCCAUACCUCCACCA
Q: Which results are given for B1?
A: Kd ([4]; tRNA cloverleaf): 800 nM; Kd ([5]; tRNA cloverleaf): 500 nM; Kd ([6]; tRNA cloverleaf): 2000 nM

Q: For GCUCCCUGGUAGAGCGCUCCCUUAGCAUGGGAG (structured_RNA) [biloop AG mutant (A14G15 to CC)], which binding signal [7] is on record?
A: The binding signal was 4 fold lower affinity than WT biloop.

B2: CetRNAmAla (structured_RNA)
RNA: GGGAUUUUAGUUUAAUAAAAAUAUAUGUUUUGCAUACAUAAGAUAAUAAUUCUACCA
Q: For B2, which Kd ([4]; tRNA) is on record?
A: Its Kd is 4500 nM.

B3: SctRNAnGly (structured_RNA)
RNA: GCGCAAGUGGUUUAGUGGUAAAAUCCAACGUUGCCAUCGUUGGGCCCCCGGUUCGAUUCCGGGCUUGCGCACCA
Q: With B3 as the molecule, how does the Kd ([4]; tRNA cloverleaf) read?
A: Its Kd is 900 nM.

B4: DLmAla mut (CetRNAnAla with D-loop of CetRNAmAla) (structured_RNA)
RNA: GGGGGUAUAGCUCAAUAAGAGCGCUCCCUUAGCAUGGGAGAGGGCUGGGGUUCAAUUCCCCAUACCUCCACCA
Q: With B4 as the molecule, how does the Kd ([4]; tRNA) read?
A: The Kd was 6500 nM.

B5: CetRNAnAla A14G15 mutant (to GA) (structured_RNA)
RNA: B1 RNA with A14G, G15A
Q: For B5, which Kd ([4]; tRNA, conformation disrupted) is on record?
A: The Kd was 10000 nM.

B6: CetRNAnAla A14G15C48 mutant (structured_RNA)
RNA: B1 RNA with A14G, G15A, C47U
Q: For B6, which Kd ([4]; tRNA) is on record?
A: Its Kd is 2000 nM.

B7: CetRNAnAla G18G19C56 mutant (structured_RNA)
RNA: B1 RNA with G17A, G18A, C55U
Q: B7 was tested. Which Kd ([4]; tRNA) did it give?
A: Its Kd is 8000 nM.

Q: Which Kd ([4]; two hairpins) does the source give for GCUCAGUGGUAGAGCGCUCCCUUAGCAUGGGAG (structured_RNA) [biloop (D-arm-anticodon arm of CetRNAnAla)] here?
A: The Kd was 2000 nM.

Q: What about the Kd ([5]; two hairpins) of the same molecule?
A: The Kd was 2000 ± 400 nM.

Q: And the Kd ([6]; two hairpins)?
A: Its Kd is 6000 ± 400 nM.

Q: For GGGGGUAUGGGGUUCAAUUCCCCAUACCUCCACCA (structured_RNA) [minihelix (T-arm-acceptor stem of CetRNAnAla)], which Kd ([5]; hairpin) is on record?
A: Its Kd is 9000 ± 200 nM.

Q: What about the Kd ([6]; hairpin) of the same molecule?
A: The Kd was 11000 ± 100 nM.
